Data on two substances can be found in PMC6885550.

Where two headings read alike, the source gives them in different places.

Common to all, as to assay: FRET or BRET
The target in experiment [1] is YFP-DWORF (dwarf open reading frame) (UniProt P0DN84).
The target is the same in experiment [2]. The source holds these as a separate data set.
Experiment [3] addresses YFP-sarcolipin (SLN) (UniProt O00631).
Experiment [4] shares this target. This is another data set of the same source.

YFP-sarcolipin (SLN) (from UniProt O00631 1-31) (natural protein), sequence (O00631 whole entry): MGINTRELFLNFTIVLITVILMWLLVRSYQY

For the substance “YFP-DWORF (dwarf open reading frame) (from UniProt P0DN84 1-35) (natural protein)”, the percent of donors in FRET (oligomer subpopulation) came out at 20% in experiment [1] and 23.4% in experiment [2].
In the case of “YFP-sarcolipin (SLN) (from UniProt O00631 1-31) (natural protein)”, the stoichiometry N (usually the number of molecules, sites or subunits per partner or assembly) with YFP-sarcolipin (SLN) [3] is more than 2; with YFP-sarcolipin (SLN) [4], 2.
